The term stoichiometry N denotes a count of units in the complex or per binding partner.

Stoichiometry N data for four substances are collected here from PMC3685208.

What all share (test): crystal structure
The target of assay [1] is JCPyV Mad-1 VP1 pentamer S268Y (amino acids 22 to 289) (JC polyomavirus (JCPyV), strain Mad-1).
The target in assay [2] is JCPyV Mad-1 VP1 pentamer S268F (amino acids 22 to 289) (JC polyomavirus (JCPyV), strain Mad-1).
Assay [3] deals with JCPyV Mad-1 VP1 pentamer (wild type, amino acids 22 to 289) (JC polyomavirus (JCPyV), strain Mad-1).
The target in assay [4] is JCPyV Mad-1 VP1 pentamer L54F (amino acids 22 to 289) (JC polyomavirus (JCPyV), strain Mad-1).

The substance “JCPyV Mad-1 VP1 pentamer S268Y (amino acids 22 to 289) (domain or fragment)” returned a stoichiometry N in assay [1] of 5.

In the case of “JCPyV Mad-1 VP1 pentamer S268F (amino acids 22 to 289) (domain or fragment)”, the stoichiometry N in assay [2] amounted to 5.

Consider “JCPyV Mad-1 VP1 pentamer (wild type, amino acids 22 to 289) (domain or fragment)”, for which, in assay [3], the stoichiometry N turned out to be 5.

“JCPyV Mad-1 VP1 pentamer L54F (amino acids 22 to 289) (domain or fragment)”: the stoichiometry N in assay [4] was found to be 5.
